Laboratory results as given in the RNAGym collection of RNA variant scans (doi:10.1073/pnas.2313332121).

B1: TPR t1 (parent)
chain: GACCAAUCUGCCCUCAGAGCUCGAGAACAUCUUCGGAUGCAGAGGAGGCAGGCUUCGGUGGCGCGAUAGCGCCAACGUCCUCAACCUCCAAUGCAUCCCACCACAUGAUGAUGCCUGAAGAGCCUUGGUUUUUUG

Variants of: B1
Assay: polymerase ribozyme fitness, log enrichment relative to wild type (log ratio); higher = more active; in vitro selection for triplet polymerase activity
How it was run: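 To select mutant libraries of each subunit of a heterodimeric triplet polymerase ribozyme, built by PCR and transcribed, each was annealed with a biotinylated primer, partner subunit and triplets, then incubated frozen at −7 °C. Extended constructs were gel-excised, captured on streptavidin beads and amplified by RT-PCR, in one round carried out in triplicate. Illumina sequencing of input and output libraries kept genotypes with ≥10 input reads and ≥1 read per output. Fitness is the base-2 logarithm of genotype enrichment relative to wild-type enrichment, from inverse-variance-weighted replicate averages.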

| Variant | polymerase ribozyme fitness (log ratio) |
| --- | --- |
| GACCAAUCUGCCCUCAGAGCUGGAGAACAUCUUCGGAUGCAGAGGAGGCAGGCUUCGGUGGCGCGAUAGCGCCAACGUCCUCAACCUCCAAGGCAUCCCACCACAUGAUGAUGCCUGAAGAGCCUUGGUUUUUUG [C22G U92G] | -5.35 |
| GACCAAUCUGCCCUCAGAGCUCGAGAACAUCUUCGGAUGCAGAGGAGGCAGGCUUCGGUGGCGCGAUAGCGCGAACGUCCACAAUCUCCAAUGCAUCCCACCACAUGAUGAUGCUUGAAGAGCCUUGGUUUUUUG [C73G U81A C85U C115U] | -5.48 |
| GACCAAUCUGCCCUCAGAGAUCGAGAACAUCUUCGGAUGCAGAGGAGGCAGGAUUCGGAGGCGCGAUAGCGCCAACGUCCUCAACCUCCAAUGCAUCCCACCACAUGAUGAUGCCUGAAGAGCCUUGGUUUUUUG [C20A C53A U59A] | -2.85 |
| GACCAAUCUGCCCUCAGAGCUCGAGAACAUCUUCGGAUGCAGAGGAGGCAGGCUUCGGUGGCGUGAUAGCGCCAACGUCCUCAACCUCCAAUGCAUCCCACCACAUGAUGAUGCCUGAAGAGCCUUGGUUUUUUC [C64U G135C] | 0.469 |
| GACCAAUCUGCCCUCAGAGCUCGAGAACAUCUUCGGAUGCAGAGGAGGCAGGCUGCGGUGGCGCGAUAGCGCCAACGUCCUCAACCUCCAAUGCAACCCACCACAUGAUGAUGCCUGAAGAGCCUUGGUUUUUUG [U55G U96A] | -1.38 |
| GACCAAUCUGCCCUCAGAGCUCGAGAACAUCUUCGCAUGCAGAGGAGGCAGGCUUCGGUGGCGCGAUAGCGCCAACGUCCUCAACCUCCAAUGCAUCCCACCACAGGAUGAUGCCUGAAGAGCCUUGGUUUUUUG [G36C U106G] | -3.63 |
| GACCAUUCUGCCCUCAGAGCUCGAGGACAUCUUCGGAUGCAGAGGAGGCAGACUUCGGUGGCGCGAUAGCUCCAACGUCCUCAACCUCCAAUGCAUCCCACCACAUGAUGAUGCCUGAAGAGCCUUGGUUUUUUG [A6U A26G G52A G71U] | -3.21 |
| GACCAAUCUGCCCUCUGAGCUCGAGAACAUCUUCGGAUGCAGAGGAGCCAGGCUUCGGUGGCGCGAUAGCGCCAACGUCCUCAACCUCCAAUGCAUCCCACCACAUGAUGAUGCCUGAAAAGCCUUGGUUUUUUG [A16U G48C G120A] | -1.64 |
| GACGAAUCUGCCCUCAGAGCUCGAGAACAUCUUCGGAUGCAGAGGAGGCAGGCUUCGGUGGCGCGAUAGCGCCAACGUCCUCAACCUCCAAUGCAUCCCACCACAUGAUGAUGCCUGAAGAGCCUUGGCUUUUUG [C4G U129C] | -1.99 |
| GACCAAUCCGCCCUCAGAGCUCGAGAACAUCUUCGGAUGCAGAGGAGGCAGGGUUCGGUGGCGCGAUAGCGCCAACGUCCUCAACCUCCAAUGCAUCCCACCACUUGAUGAUGCCUGAAGAGCCUUGGUUUUUUG [U9C C53G A105U] | -1.72 |
| GACCGAUCUGCCCUCAGAGCUCGAGAACAUCUUCGGAUGCAGAGGAGGCAGGCUUCGGUCGCGCGAUAGCGCCAACGUCCUCAACCUCCAAUGCAUCCCACCACAUGAUGAUGCCUGAAGAGCCUUGGUUUUUUG [A5G G60C] | 0.0339 |
| GACCAAUCUGCCCUCAAAGCUCGAGAACAUCUUCGGAUGCAGAGGAGCCAGGCUUCGGUGGCGCGAUAGCGCCAACGUCCUCAACCUCCAAUGCAUCCCACCACAUGAUGAUGCCUGAAGAGCAUUGAUUUUUUG [G17A G48C C124A G128A] | -3.31 |
| GACCAUUCUGCCCUCAGAGCUCGAGAACGUCUUCGGAUGCAGAAGAGGCAGGCUUCGGUGGCGCGAUAGCGCCAACGUCCUAAACCUCCAAUGCAUCCCACCACAUGAUGAUGCCUGAAGAGCCUUGGUUUUUUG [A6U A29G G44A C82A] | -2.51 |
| GACCAAUCUGCCCUCAGAGCUCGAGAACAUCUUCGGAUGCAGAGGAGGUAGGCUUCUGUGACGCGAUAGCGCCAACGUCCUCAACCUCCAAUGCAUCCCACCACAUGAUGAUGCCUGAAAAGCCUUGGUUUUUUG [C49U G57U G61A G120A] | -0.511 |
| GACCAAUCUGCCCUCAGAGCUCGAGAACUUCUUCGGAUGCAGAGGAGGCAGGCUUCGGUGGCGCGAUAGCGCCAACGUCCUCAACCUCCAAUGCAUCCGACCACAUGAUGAUGCCUGAGCAGCCUUGGUUUUUUG [A29U C99G A119G G120C] | -6.66 |
| GACCAAUCUGCCCUCAGAGCUCGAGAACAUCUUCGGAUGCAGAGGAGGCAGGAUUAGGUGGCGCGAUAGCGCCAACCUCCUCAACCUCGAAUGCAUCCCACCACAUGAUGAUGCCUGAAGAGCCUUGGUUUUUUG [C53A C56A G77C C89G] | -0.889 |
| GACCAAUCUGCCCUCAGAGCUCGAGAACAUCUUCGGAUGCAGAGAAGGCAGGCUUCGGUGGCGCGAUAUCGCCAACGUCCUCAACCUCCAAUGCAUCCCACCCCAUGAUGAUGCCUGAAGAGCCUUGGUUUUUUG [G45A G69U A103C] | -2.35 |
| GACCAAUCUGCCCUCAGUGCUCGAGAACAUCUUCGGAUGCAAAGGAGGCAGGGUUCGGUGGCGCGAUAGCGCCAACGUCCUCAAUCUCAAAUGCAUCCCACCACAUGAUGAUGCCUGAAGAGCCUUGGUUUUUUG [A18U G42A C53G C85U C89A] | -3.31 |
| GACCAAUCUGCCCUCAGAGCUCGAGAACAUCUUCGGAUGCAGAGGAGGCAGGCUUCGGUGGCGCGAUAGCGCCUACGUCUUCAACCUCCAAUGCAUCCCACCACAUGAUGAUGCCUGAAGAGCCUUGGUUUUUUG [A74U C80U] | -1.18 |
| GACCAAUCUGCCCUCAGAGCUCGAGAACAUCUUCGGAUGCAGAGGGGGCAGGCUUCGGUGGCGCGAUAGCGCCAACCUCCUCAACCUCCAAUGCAUUCCACCACAUGAUGAUGCCUGAAGAGCGUUGGUUUUUUG [A46G G77C C97U C124G] | 0.934 |
| GACCAAUAUGCCCUCAGAGCUCGAGAACAUCUUCGGAUGCAGAGGAGGCAGGCGUCGGUGGCGCGAUAGCGCCAACGUCCUCAACCUCCAAUGCAUCCCACCACGUGAUGAAGCCUGAAGAGGAUUGGUUUCUUG [C8A U54G A105G U112A C123G C124A U132C] | -1.56 |

| Variant | polymerase ribozyme fitness (log ratio) |
| --- | --- |
| GACCAAUCUGCCCUCAGAGCUCGAGAACAUCUUCGGAUGCAGAGGAGGCAGGCUUCGGUGGCGCGAUAGGGCCAACGUACUCAACCUCCAAUGCAUCCCACCACAUGAUGAUGCCUGAAGAGCCUUGGUUUUUUG [C70G C79A] | -4.41 |
| GACCAAUCUGCCCUCAGAGCUCGAGAACAUCUUCGGAUGCAGAGGAGGCAGGCUUCGGUGGCGCGAUAGCGCCAACGUCCUCAACCUCCAAUGCAUCCCACCACAUGAUGAAACCUGAAGAGCCUUGGUUUUUUG [U112A G113A] | -0.782 |
| GACCAAUCUGCCCUCAGAGCUCGAGAACGUCUUCCGAUGCAGAGGAGGCAGGCUUCGGUGGCGCGAUAGCGCCAACGUCCUCAACCUCCAAUGCAUCGCACCACAUGAUGAUGCCUGAAGAGCCUUGGUUUUUUG [A29G G35C C98G] | -3.4 |
| GACCAAUCUGCCCUCAGAGCUCGAGAACAUCUUCGGAUGCAGAGGAGGCAGGUUUCGGUGGCGCGAUAGCGCCAACGUCCUCAACCUCCAAUGCAUCCCACCACAUGAUUAUGCCUGAAGAGCCUUGGUUUUUUG [C53U G110U] | -1.81 |
| GACCAAUCUGCCCGCAGAGCUCGAGAACAUCUUCGGAUGCAGAAGAGGCAGGCUUCGGUGGCGCGAUAGCGUCAACGUCCUCAACCUCCAAUGCAUCCCACCAUAUGAUGAUGCCUGAAGAGCCUUGGUUUUUUG [U14G G44A C72U C104U] | -2.42 |
| GACCAAUCUGCCCUCUGAGCUCGAGAACAUCUUCGGAUGCAGAGGAGGCAGGCUUCGGUGUCGCGAUAGCGCCAACGUCCUCAACCUCCAAUGCAUCCCACCACAUGAUGAUGCCUGAAGAGCCUUGGUUUUUUG [A16U G61U] | -1.11 |
| GACCAAUCUGCCCUCAGAGCUCGAGAACAUCUUCGGAUGCAGAGGAGGCAGGCUUCGGUGGCGCGAUAGUGCCAACGUCCUCAACCUCCAAUCCAUCCCACCACAUGAUGAUGCCUGAAGAGCCUUGGUUUUUUG [C70U G93C] | -1.12 |
| GACCAAUCUGCCCUCAGAGCUCGAGAACAUCUUCGGAUGCAGAGGAGGCAGGCUUCGGUGGCGCGAUAGCGCGAACGUCCUCAACCUCCAAUGCAUCCCACCACAUGAUGAUUCCUGAAGAGCCUUGGUUUUUUG [C73G G113U] | -2.74 |
| GACCAAUCUGCCCUCAGAGCUCGAGAACAUCUUCGGAUGCAGAGGAGGCAGGCUUUGGUGGCGCGAUAGCGCCAACGUCCUCAACCUCCAAUGCAUCUCACCACAUGAUGAUGCCUGAAGAGCCUUGGUUUUUUG [C56U C98U] | -0.841 |
| GACCAAUCUGCCCUCAGAGCUCGAGAACAUCUUCGGAUGCAGAGGAGGCAGGCUUCGAUGGCGCGAUAGCACCAACGUCCUCAACCUCAAAUGCAUCCCACCACAUGAUGAUGCCUGAAGAGACUUGGUUUUUUG [G58A G71A C89A C123A] | -3.72 |
| GACCAAUCUGCCCUCAGAGCUCGAGAACAUCUUCGGAUGCAGAGGAGGCAGGCUUCGGUGGCGCGAUAGCGUCAACGUCCUCAACCUCCAAUGCAUCCCACCACAUGAUGAUGCCUCAAGAGCCGUGGUUUUUUG [C72U G117C U125G] | -5.63 |
| GACCAAUCUGUCCUCAGAGCUCGAGAACAUCUUCGGAUGCAGAGGAGGCAGGCUUCGGUGGCGCGAUAGCGCCAACGUCCUCAACCUCCAAUGCAUCUCACCACAUGAUGAUGCCUGAAGAGCCUUGGUUUUUUG [C11U C98U] | -1.79 |
| GACCAAUCUGCCCUCAGAGCUCGAGAACAUCUUCGGAUGCAGAGGAGGCAGGCUUCGGUGGCGCGAUAGCGCCAACGUCCUCAACCUCCAAUGCAUUCCACCACAUGAUGAUCCCUGAAGAGCCUUGGUUUUUUG [C97U G113C] | -2.71 |
| GACCAAUCUGCCUUCAGAGCUCGAGAACAUCUUCGGAUGCAGAGGAGGCAGGCUUCGGUGGCGCGAUAGCGCCAACGUCCUCAACCUCCAAUGCAUCCCACCACUUGAUGAUGCAUGAAGUGCCUUGGUUUUUUG [C13U A105U C115A A121U] | 0.733 |
| GACCAAUCUGCCCUCAGUGCUCGAGAAUAUCUUCGGAUGCAGAGGAGGCUGGCUUCGGUGGCGCGAUAGCGCCAACGUCCUCAACCUCCAAUGCAUCACACCACAUGAUGAUGCCUGAAGAGCCUUGGUUUUUUG [A18U C28U A50U C98A] | -7.62 |
| GACCAAUUUGCCCUCAGAGCUCGAGAACAUCUUCGGAUGCAGAGGAGGCAGGCUUCGGUGGCCCGAUAGCGCCAACGUCCUCAACCUCCAAUGCAUCCCACUACAUGAUGAUGCCUGAAGAGCCUUGGUUUUUUG [C8U G63C C102U] | -2.5 |
| GACCAAUCUGCCCUCAGAGCUAGAGAACGUCUUCGGAUGCAGAGGAGGCGGGCUUCGGUGGCGCGAUAGCGCCAACGUCCUCAACCUCCAAUGCAUCCCACCACAUGAUGAUGCCGGAAGAGCCUUGGCUUUUUG [C22A A29G A50G U116G U129C] | -5.9 |
| GACCAAUCUGCCCUCAGAGCUCGAGAACAUCUUCGGAUGCAGAGGAGGCAGGCUUCGGUGGCGCGAUAGCGCCAACGUCCUCAACCUCCAAUCCAUCCCACCACAUGAUGAUGCCUGAAGAGCCUUGGUUGUUUG [G93C U131G] | -1.28 |
| GACCAAUCUGCCCUCAGAGCUCGAGAACAUCUUCGGAUGCAGAGGAGGCAGGCUUCGGUGGCGCGAUAACGCCAACGUCCUCAACCUCCAAUGCAUCCCACCACAUGAUGAUGCCUGAAUAGCCUUGGUUUUUUG [G69A G120U] | -2.36 |
| GACCAAUCUGCCCUCAGAGCUCGAGAACAUCUUCGGAUGCUGAGGACGCAGGCUUCGGUGGCGCGAUAGCGCCAUCGUCCUCAACCUCCAAUGCAUCCCACCACAUGAUGAUGCCUGAAGAGCCUUGGUUUUUUG [A41U G47C A75U] | -3.07 |
| GACCAAUCUGCCUUCAGAGCUCGAGAACAUCUUCGGAUGCAGAGGAGGCAGGCUUCGGUGGCGCGAUAGCGCCAACGUCCUGAACCUCCAAUGCAUCCUACCACAUGAUGAUGCCUGAAGAGCCUUGGUUUUUUG [C13U C82G C99U] | -3.96 |
